How the values were obtained:
[1] = tested on: T1, Cbz-Ala-Ala-AAsn-CH═CH-COOEt
T1 sequence: AAN

[2] = tested on: T2, PhPr-Leu-ALys-CH═CH-COOEt
T2 sequence: LK

[3] = tested on: T3, Cbz-Ala-Ala-AAsn-CH═CH-CO-indoline
T3 sequence: AAN

[4] = tested on: T4, Cbz-Ala-Ala-AAsn-CH═CH-CONHCH2CH2Ph
T4 sequence: AAN

[5] = tested on: T5, Cbz-Ala-Ala-AAsn-CH═CH-CON(CH3)Bzl
T5 sequence: AAN

[6] = tested on: T6, PhPr-Leu-AOrn-CH═CH-COOEt
T6 sequence: LX

[7] = tested on: T7, Cbz-Ala-Ala-AAsn-CH═CH-CON(Bzl)2
T7 sequence: AAN

Substance	kobs/[I] [1]	kobs/[I] [2]	kobs/[I] [3]	kobs/[I] [4]	kobs/[I] [5]	kobs/[I] [6]	kobs/[I] [7]
Cathepsin B	1 M⁻¹ s⁻¹	9 M⁻¹ s⁻¹	NI	NI	NI	3 M⁻¹ s⁻¹	NI
Gingipain K	6 M⁻¹ s⁻¹		1 M⁻¹ s⁻¹	NI	1 M⁻¹ s⁻¹		2 M⁻¹ s⁻¹
Trypsin		17 M⁻¹ s⁻¹				NI	

From patent US20050256058
